Biological target: T1, bovine serum albumin (bovine, UniProt P02769 25-607)
T1 construct: Negative control coating protein in the enzyme capture assay; also called BSA
Experiment: enzyme capture assay, coated wells, APC-spiked plasma, chromogenic read-out
Method: As negative controls, microtiter plate wells were coated with either 5 μg/ml HPC4 monoclonal antibody or 1% bovine serum albumin (BSA) in the same buffer. The plates were then blocked for 1 hour at 37° C. or overnight at 4° C. with 200 μl of blocking buffer (coating buffer containing 1% BSA). The solutions were gently removed from the plates by vacuum.
To generate a standard curve for the quantitative measurement of APC in plasma, increasing amounts of APC (from 0 to 250 ng/ml) were spiked into normal pooled plasma containing 20 mM Hepes, pH 7.5, 2 units/ml heparin, 20 mM benzamidine, and 10 mM CaCl₂. The spiked plasma (100 μl) were transferred to the plates and incubated at room temperature for 1 hour. The wells were then washed three times with wash buffer (20 mM Hepes, pH 7.5, 150 mM NaCl, 0.05% Tween-20, and 5 mM CaCl₂). The chromogenic activity of APC was determined by the addition of 100 μl of Spectrozyme PCa (1 mM) in 20 mM Hepes, pH 7.5, 150 mM NaCl, 5 mM CaCl₂. The plates were immediately placed at 37° C., and substrate hydrolysis was monitored at 405 nm over time using a Vmax microplate reader (Molecular Devices Corp, Sunnyvale, Calif.). All samples were assayed in duplicates or triplicates.

T1 sequence (P02769 25-607 limits assumed): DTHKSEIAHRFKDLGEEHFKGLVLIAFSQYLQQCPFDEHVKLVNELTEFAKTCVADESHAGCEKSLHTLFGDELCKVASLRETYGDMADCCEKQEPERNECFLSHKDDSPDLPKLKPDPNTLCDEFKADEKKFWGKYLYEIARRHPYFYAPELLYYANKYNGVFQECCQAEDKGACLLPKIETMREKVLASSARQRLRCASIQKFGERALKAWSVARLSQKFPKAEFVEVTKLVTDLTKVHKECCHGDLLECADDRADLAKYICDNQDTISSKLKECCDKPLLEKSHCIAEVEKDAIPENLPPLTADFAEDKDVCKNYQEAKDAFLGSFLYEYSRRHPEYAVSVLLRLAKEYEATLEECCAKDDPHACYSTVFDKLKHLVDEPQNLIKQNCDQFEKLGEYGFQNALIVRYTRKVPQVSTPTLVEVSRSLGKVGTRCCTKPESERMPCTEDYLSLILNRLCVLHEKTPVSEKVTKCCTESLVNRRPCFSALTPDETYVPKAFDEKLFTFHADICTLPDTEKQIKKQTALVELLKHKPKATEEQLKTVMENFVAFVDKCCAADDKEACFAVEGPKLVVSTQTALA

binding result: no binding (tested: 1% coating)
B1: human activated protein C (enzyme)
chain 1: ANSFLEELRHSSLERECIEEICDFEEAKEIFQNVDDTLAFWSKHVDGDQCLVLPLEHPCASLCCGHGTCIDGIGSFSCDCRSGWEGRFCQREVSFLNCSLDNGGCTHYCLEEVGWRRCSCAPGYKLGDDLLQCHPAVKFPCGRPWKRMEKKRSHL
chain 2: LIDGKMTRRGDSPWQVVLLDSKKKLACGAVLIHPSWVLTAAHCMDESKKLLVRLGEYDLRRWEKWELDLDIKEVFVHPNYSKSTTDNDIALLHLAQPATLSQTIVPICLPDSGLAERELNQAGQETLVTGWGYHSSREKEAKRNRTFVLNFIKIPVVPHNECSEVMSNMVSENMLCAGILGDRQDACEGDSGGPMVASFHGTWFLVGLVSWGEGCGLLHNYGVYTKVSRYLDWIHGHIRDKEAPQKSWAP
notes: the whole natural protein is named as one piece; also called APC
